Results: patent US20190153410A1 (NOVOZYMES A S, published 2019)

Legend:
[1] = biological target: T1, propeptide of Rhizomucor miehei lipase (RmL propeptide)
T1 chain: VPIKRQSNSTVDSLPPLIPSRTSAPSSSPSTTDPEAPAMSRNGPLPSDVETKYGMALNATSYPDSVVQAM

[2] = biological target: T2, Lipex (SEQ ID NO: 5) (Thermomyces lanuginosus (Thermophilic …, UniProt O59952 23-291)); test: cell-based or functional assay
T2 chain: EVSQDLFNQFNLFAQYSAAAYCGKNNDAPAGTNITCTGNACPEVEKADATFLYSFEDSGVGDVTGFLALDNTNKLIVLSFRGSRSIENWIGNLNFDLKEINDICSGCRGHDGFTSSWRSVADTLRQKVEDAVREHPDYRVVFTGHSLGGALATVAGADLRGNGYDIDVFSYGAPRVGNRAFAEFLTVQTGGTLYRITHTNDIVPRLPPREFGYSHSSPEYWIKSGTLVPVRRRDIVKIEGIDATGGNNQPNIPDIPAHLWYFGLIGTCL

[3] = biological target: T3, RhimiLip1 (SEQ ID NO: 7); test: cell-based or functional assay
T3 chain: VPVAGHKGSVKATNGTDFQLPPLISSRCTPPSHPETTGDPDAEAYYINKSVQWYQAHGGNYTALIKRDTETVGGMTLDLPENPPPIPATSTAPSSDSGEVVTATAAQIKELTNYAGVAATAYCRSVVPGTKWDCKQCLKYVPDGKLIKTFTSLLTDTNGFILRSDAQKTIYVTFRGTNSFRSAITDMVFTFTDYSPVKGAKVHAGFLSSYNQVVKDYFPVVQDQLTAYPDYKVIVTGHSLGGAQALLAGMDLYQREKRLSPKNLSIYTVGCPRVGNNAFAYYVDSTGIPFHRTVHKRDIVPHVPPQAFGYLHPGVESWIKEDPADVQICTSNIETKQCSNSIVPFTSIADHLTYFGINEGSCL

[4] = biological target: T4, Rhizomucor miehei lipase (RmL) mature protein (Rhizomucor miehei, UniProt P19515 95-363); test: cell-based or functional assay
T4 sequence: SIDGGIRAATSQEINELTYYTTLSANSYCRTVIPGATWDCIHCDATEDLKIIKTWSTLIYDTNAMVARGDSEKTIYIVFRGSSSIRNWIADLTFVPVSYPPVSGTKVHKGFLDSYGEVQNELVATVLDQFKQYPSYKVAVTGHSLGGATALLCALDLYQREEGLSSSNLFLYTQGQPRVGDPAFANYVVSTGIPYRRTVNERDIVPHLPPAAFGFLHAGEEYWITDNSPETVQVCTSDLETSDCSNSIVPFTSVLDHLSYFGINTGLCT

[5] = biological target: T5, MuciLip2CN (SEQ ID NO: 6); test: cell-based or functional assay
T5 chain: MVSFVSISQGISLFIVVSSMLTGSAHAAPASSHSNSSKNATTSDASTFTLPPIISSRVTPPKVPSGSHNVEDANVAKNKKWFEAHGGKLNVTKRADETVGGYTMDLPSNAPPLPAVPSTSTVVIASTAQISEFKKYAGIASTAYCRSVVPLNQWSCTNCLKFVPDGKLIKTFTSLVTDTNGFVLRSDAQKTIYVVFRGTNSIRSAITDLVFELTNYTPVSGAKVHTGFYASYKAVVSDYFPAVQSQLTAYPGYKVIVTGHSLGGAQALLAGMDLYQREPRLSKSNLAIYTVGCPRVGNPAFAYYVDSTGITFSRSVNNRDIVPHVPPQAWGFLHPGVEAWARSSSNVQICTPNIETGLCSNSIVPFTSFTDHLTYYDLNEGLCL

B1: Rhizomucor miehei lipase (RmL) mature protein (protein)
chain: SIDGGIRAATSQEINELTYYTTLSANSYCRTVIPGATWDCIHCDATEDLKIIKTWSTLIYDTNAMVARGDSEKTIYIVFRGSSSIRNWIADLTFVPVSYPPVSGTKVHKGFLDSYGEVQNELVATVLDQFKQYPSYKVAVTGHSLGGATALLCALDLYQREEGLSSSNLFLYTQGQPRVGDPAFANYVVSTGIPYRRTVNERDIVPHLPPAAFGFLHAGEEYWITDNSPETVQVCTSDLETSDCSNSIVPFTSVLDHLSYFGINTGLCT
In the case of B1, the “hydrolytic activity on p-nitrophenyl acyl esters (C3, C6, C10, C12, C16), release of p-nitrophenol at 405 nm” value [1] is reported as “RmL with the propeptide bound showed no activity at any of the conditions tested”.

B2: propeptide of Rhizomucor miehei lipase (RmL propeptide) (peptide)
peptide: VPIKRQSNSTVDSLPPLIPSRTSAPSSSPSTTDPEAPAMSRNGPLPSDVETKYGMALNATSYPDSVVQAM
For B2, the “RP(wash) with inhibitor, AMSA, propeptide:lipase 320:1 (normalized to no inhibitor = 1.00)” value (“RP(wash) … (normalized to no inhibitor = 1.00)” for short) [2] was 0.89, the “RP(wash) … (normalized to no inhibitor = 1.00)” value [3] was 0.92 and the “RP(wash) … (normalized to no inhibitor = 1.00)” value [4] was 0.02. The “RP(wash) … (normalized to no inhibitor = 1.00)” value [5] was 1.1.
